This experiment has as its target Cd^2+-bound Y82C-KcsA (UniProt P0A334). Description: crystal structure.

The text below walks through data of publication PMC3846092.

Regarding “Cd^2+-bound Y82C-KcsA (from UniProt P0A334 1-160) (natural protein)”, the stoichiometry N worked out at 4.

The stoichiometry N is the number of molecules, sites or subunits per partner or assembly.
